Assay results taken from US20050191293A1 (Bristol-Myers Squibb, published 2005).
Residue numbers refer to the chain shown, from its start.

B1: 7C10 human monoclonal antibody (antibody, V domains shown)
VH: QVQLVESGGGVVQPGRSLRLSCAASGFTFSNSGMHWVRQAPGKGLEWVAVIDYDGIIQYYADSVKGRFTISRDNSKNTLYLQINSLRAEDTAVYYCATERGTHYYGSGSFDYWGQGTLVTVSS
VL: DIQMTQSPSSLSASVGDRVTITCRASQGISSWLAWYQQKPEKAPKSLIYAASSLQSGVPSRFSGSGSGTDFTLTISSLQPEDFATYYCQQYNSYPPTFGGGTKVEIK
notes: Human IgG with kappa light chain from a hybridoma of transgenic mice
B2: 1E1 human monoclonal antibody (antibody, V domains shown)
VH: QEQLVESGGNVVQPGRSLRLSCAASGFTFSTYGMHWVRQAPGKGLEWVAVIWYDGSDKYYADSVKDRFTVSKDNSKNTLYLQMNSLRAEDTAVYYCARNIAVADVAFDLWGQGTMVTVSS
VL: not shown
notes: as for B1
B3: 10A12 human monoclonal antibody (antibody, V domains shown)
VH: QVQLVESGGGVVQPGRSLRLSCAASGFTFSNCGMHWVRQAPGKGLEWVALIGFDGINEYYADSVKGRFTISRDNSKNTLYLQMNSLRAEDTAVYYCARDWPEGYYNGMDVWGQGTTVTVSS
VL: not shown
notes: as for B1
B4: 10A12S (10A12 with cysteine 32 of VH CDR1 mutated to serine) (antibody, V domains shown)
VH: B3 VH with C32S
VL: not shown
B5: 8F6 human monoclonal antibody (antibody, V domains shown)
VH: QVQLVDSGGGVVQPGRSLRLSCAASGFTFNTYGMHWVRQAPGKGLEWVAVISYDGIIKHYADSVKGRFTITRDNSKNMVHLQMNSLRAEDTAVYYCARDSSSWYVYFDYWGQGTLVTVSS
VL: EIVLTQSPATLSLSPGERATLSCRASQSVSSYVAWYQQKPGQAPRLLIYDASNRATGIPARFSGSGSGTDFTLTISSLEPEDFAIYYCQQRSNSPPWTFGQGTKVEIK
notes: as for B1

Experiments:
[1] = biological target: T1, human IP-10 (interferon gamma inducible protein 10) (human, UniProt P02778 22-98); assay: cell-based or functional assay
T1 sequence (P02778 other isoform, or with tags, fused parts or gaps limits assumed): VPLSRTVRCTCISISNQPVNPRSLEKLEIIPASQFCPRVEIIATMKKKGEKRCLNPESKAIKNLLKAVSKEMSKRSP

[2] = biological target: T2, human ITAC (interferon-inducible T cell alpha chemoattractant) (human, UniProt O14625 22-94); assay: SPR (Biacore), antigen on CM5 chip, 25 C
T2 sequence: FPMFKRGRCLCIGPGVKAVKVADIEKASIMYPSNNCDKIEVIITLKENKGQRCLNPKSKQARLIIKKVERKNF
Procedure: (§1) The flow was then stopped and dissociation was monitored for 5 minutes. The association and dissociation curves were fit to a Langmuir binding model using BIAevaluation software (Biacore AB).

[3] = biological target: T1, human IP-10 (interferon gamma inducible …); assay: SPR (Biacore), human IP-10 on CM5 chip, 25 C
Procedure: (§2) Binding was measured by flowing the antibody in HBS EP buffer (provided by Biacore AB) at concentrations from 33-267 nM at a flow rate of 40 μl/min. The antigen-antibody association kinetics was followed for 5 minutes and the dissociation kinetics was followed for 8 minutes. The association and dissociation curves were fit to a 1:1 Langmuir binding model using BIAevaluation software (Biacore AB). Data corresponding to the initial few dozen seconds for association and dissociation phases alone were considered for curve fitting to minimize the effect of avidity. The experiments were performed at both 25° C. and 37° C.

[4] = biological target: T1, human IP-10 (interferon gamma inducible …); assay: SPR (Biacore), human IP-10 on CM5 chip, 37 C
Procedure: as §2

rhesus monkey IP-10 [5] = biological target: T3, rhesus monkey IP-10 (rhesus monkey, UniProt Q8MIZ1 22-98); assay: SPR (Biacore), antigen on CM5 chip, antibody 133 nM, 25 C
T3 construct: Made by recombinant expression and purified by standard methods; also called Rhesus IP-10; rrmIP-10
T3 sequence: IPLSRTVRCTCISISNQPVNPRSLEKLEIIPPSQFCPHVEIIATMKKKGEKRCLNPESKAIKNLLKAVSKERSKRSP
Procedure: as §1

mouse IP-10 [6] = biological target: T4, mouse IP-10 (mouse, UniProt P17515 22-98); assay: as above
T4 construct: Bought (PeproTech 250-16)
T4 sequence: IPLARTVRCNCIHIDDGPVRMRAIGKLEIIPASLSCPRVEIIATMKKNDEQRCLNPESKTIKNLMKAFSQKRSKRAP
Procedure: as §1

[7] = biological target: T1, human IP-10 (interferon gamma inducible …); assay: inhibition of 0.100 nM 125I-IP-10 binding to CXCR3-expressing 300.19 cells
Procedure: The cells were grown in RPMI media containing 10% FCS and G418 selection. Prior to use, the cells were washed twice with Hank's Balanced Salt Solution (HBSS) at 4° C. and adjusted to 4×10⁷ cells/ml. Glass fiber plates (Millipore MultiScreen®, Cat. #MAFBNOB50) were blocked with 200 μl of a 0.1% polyethyleneimine solution one day prior to the experiment. On the day of the study, the blocking buffer was aspirated by using a Millipore manifold. The plates were washed three times with 200 μl of binding buffer (50 mM HEPES, pH 7.2, 1 mM CaCl₂, 5 mM MgCl₂, 0.5% BSA). […] The plates were incubated on a plate shaker for 60 minutes at room temperature and washed three times with wash buffer (10 mM HEPES, pH 7.2, 0.5 M NaCl, 0.5% BSA) at a volume of 200 μl per wash. The plates were dried, 25 μl of scintillant was added and the plates were counted on a Wallac Microbeta Counter. Data were analyzed using Prism software and a KD was calculated.
Competition assays were run in a similar manner to the experiment described above. […] Lastly, 25 μl of cells at a density of 1×10⁶ cells per well were added and the plates were incubated on a plate shaker for 60 minutes at room temperature, washed and counted as described above. EC₅₀ values were calculated using Prism software. Kᵢ values (in nM) were determined using the formula: […]

[8] = biological target: T1, human IP-10 (interferon gamma inducible …); assay: ELISA, plate coated with 1 ug/ml antigen
Procedure: (§3) The plates were washed with PBS/Tween and then incubated with a goat-anti-human IgG Fc polyclonal antibody conjugated with horseradish peroxidase (HRP) for 1 hour at room temperature. After washing, the plates were developed with ABTS substrate (Sigma, A-1888, 0.22 mg/ml) and analyzed by spectrophotometer at OD 415-495.

rhesus monkey IP-10 [9] = biological target: T3, rhesus monkey IP-10; assay: ELISA, plate coated with 1 ug/ml antigen
Procedure: as §3

[10] = biological target: T5, human MIG (monokine induced by gamma interferon) (human, UniProt Q07325 23-125); assay: ELISA, plate coated with 1 ug/ml antigen
T5 construct: Bought (PeproTech 300-26; R&D Systems for the migration assay)
T5 sequence: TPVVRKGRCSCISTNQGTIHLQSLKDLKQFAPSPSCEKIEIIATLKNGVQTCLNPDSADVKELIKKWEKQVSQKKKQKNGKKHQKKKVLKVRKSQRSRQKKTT
Procedure: as §3

mouse IP-10 [11] = biological target: T4, mouse IP-10; assay: ELISA, plate coated with 1 ug/ml antigen
Procedure: as §3

[12] = biological target: T1, human IP-10 (interferon gamma inducible …); assay: SPR (Biacore), extension of dissociation curve, 25 C
Procedure: as §2
(§4) The values were determined by extension of the dissociation curves to get to the time required for the 50% reduction of the Y-axis of the dissociation sensogram.

[13] = biological target: T1, human IP-10 (interferon gamma inducible …); assay: SPR (Biacore), extension of dissociation curve, 37 C
Procedure: as §2, §4

[14] = biological target: T5, human MIG (monokine induced by gamma …); assay: SPR (Biacore), antigen on CM5 chip, antibody 133 nM, 25 C
Procedure: as §1

[15] = biological target: T1, human IP-10 (interferon gamma inducible …); assay: cell-based or functional assay; remark: listed apart in the source
rhesus monkey IP-10 [16] = biological target: T3, rhesus monkey IP-10; assay: cell-based or functional assay
[17] = biological target: T1, human IP-10 (interferon gamma inducible …); assay: cell-based or functional assay; remark: listed apart in the source

Binder | IC50 (nM) for 300.19 Cells: inhibition of IP-10-induced calcium flux in 300.19 cells transfected to express CXCR3 [1] [nM] | IC50 (nM) for HPBL: inhibition of IP-10-induced calcium flux in anti-CD3 activated human PBLs that express CXCR3 [1] [nM] | binding result [2] | Kd [3] [nM] | koff [3] [s⁻¹] | kon [3] [M⁻¹ s⁻¹] | Kd [4] [nM] | koff [4] [s⁻¹] | kon [4] [M⁻¹ s⁻¹] | Kd (rhesus monkey IP-10 [5]) [nM] | Ki [7] [nM] | EC50 [8] [µg/mL] | EC50 (rhesus monkey IP-10 [9]) [µg/mL] | EC50 [10] [µg/mL] | binding result (mouse IP-10 [11]) | Half-life (dissociation of half of the antibody-antigen complex) [12] [h] | Half-life (dissociation of half of the antibody-antigen complex) [13] [h] | Kd [14] [nM] | THP-1 IP-10 IC50: inhibition of migration of CXCR3-expressing 300.19 cells induced by native IP-10 in THP-1 supernatant, MIG blocked by anti-MIG [15] [µg/mL] | rhIP-10 IC50: inhibition of migration of CXCR3-expressing 300.19 cells induced by 100 ng/ml recombinant human IP-10 [15] [µg/mL] | also measured
B1 | 0.77 | 8.15 | no binding (tested: 133 nM) | 0.02 | 4e-07 | 17000 | 0.016 | 8e-07 | 52700 | 4.4 | 0.41 | – | – | – | – | – | – | – | – | – | Kd (mouse IP-10 [6]): 464 nM
B2 | – | 3.64 | – | – | – | – | – | – | – | – | 0.29 | – | – | – | – | – | – | – | – | – | –
B3 | 0.18 | 1.25 | no binding (tested: 133 nM) | 0.53 | 2.02e-05 | 38300 | 0.34 | 3.81e-05 | 111000 | 0.71 | 0.09 | 0.04 | 0.08 | 0.18 | no binding | 9.53 | 5.05 | 161 | – | – | –
B4 | 0.08 | 2.31 | no binding (tested: 133 nM) | 0.88 | 3.24e-05 | 36800 | 0.49 | 4.43e-05 | 91000 | 1.21 | 0.06 | 0.0049 | 0.0156 | 0.38 | no binding | 5.94 | 4.34 | 722 | 0.211 | 0.115 | rrmIP-10 IC50: inhibition of migration of CXCR3-expressing 300.19 cells induced by 100 ng/ml recombinant rhesus macaque IP-10 (rhesus monkey IP-10 [16]): 15.1 µg/mL; Expt. 1 IC50: inhibition of MS-CSF induced migration of CXCR3-expressing 300.19 cells, MIG neutralized by anti-MIG [17]: 0.562 µg/mL; Expt. 2 IC50: inhibition of MS-CSF induced migration of CXCR3-expressing 300.19 cells, MIG neutralized by anti-MIG [17]: 0.577 µg/mL
B5 | 0.3 | 6.27 | no binding (tested: 133 nM) | 0.81 | 0.00019 | 233000 | 0.78 | 0.00027 | 347000 | 0.81 | 0.16 | 0.09 | 0.031 | – | no binding | 1.01 | 0.71 | – | 0.173 | 0.355 | rrmIP-10 IC50: inhibition of migration of CXCR3-expressing 300.19 cells induced by 100 ng/ml recombinant rhesus macaque IP-10 (rhesus monkey IP-10 [16]): 0.1 µg/mL; binding result [10]: no binding
